From patent US20240301064A1 (published 2024)
Numbering of substitutions follows the chain as printed. Values belong to the binder of their own block, whether it stands above or below them.

Target: T1, human PD-1 (human, UniProt Q15116 25-167, limits assumed)
T1 construct: also called huPD-1
Assay: BLI, antibody on AHC tip, soluble PD-1

T1 sequence (Q15116 25-167 limits assumed): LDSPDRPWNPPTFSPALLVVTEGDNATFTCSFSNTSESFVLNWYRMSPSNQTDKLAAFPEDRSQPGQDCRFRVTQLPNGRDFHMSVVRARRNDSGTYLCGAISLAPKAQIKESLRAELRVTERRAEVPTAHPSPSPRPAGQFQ

- Kd: 96.9 nM
B1: PMAB119 (bispecific antibody, human IgG1, kappa)
heavy: QVQLVQSGAEVKKPGASVKVSCKASGYSFTTYYMHWVRQAPGQGLEWMGIIAPSGGSTSYAQKFQGRVTMTRDTSTSTVYMELSSLRSEDTAVYYCASGWVYWGQGTLVTVSSASTKGPSVFPLAPSSKSTSGGTAALGCLVKDYFPEPVTVSWNSGALTSGVHTFPAVLQSSGLYSLSSVVTVPSSSLGTQTYICNVNHKPSNTKVDKKVEPKSCDKTHTCPPCPAPEAAGAPSVFLFPPKPKDTLMISRTPEVTCVVVDVSHEDPEVKFNWYVDGVEVHNAKTKPREEQYNSTYRVVSVLTVLHQDWLNGKEYKCKVSNKALPAPIEKTISKAKGQPREPQVYTLPPSREEMTKNQVSLTCLVKGFYPSDIAVEWESNGQPENNYKTTPPVLDSDGSFFLYSKLTVDKSRWQQGNVFSCSVMHEALHNHYTQKSLSLSPGGGGGSGGGGSGGGGSEVQLLESGGGLVQPGGSLRLSCAASGFTFSDFWMHWVRQAPGKGLEWISYISGDSGYTNYADSVKGRFTISRDNSKNTLYLQMNSLRAEDTAVYYCARDRPYYYYMDVWGKGTTVTVSSGGGGSGGGGSGGGGSGGGGSDIQMTQSPSSLSASVGDRVTITCRASQSVSRSLAWYQQKPGKAPKLLIYAASSLQSGVPSRFSGSGSGTDFTLTISSLQPEDFATYYCQQYKSYPVTFGQGTKVEIK
light: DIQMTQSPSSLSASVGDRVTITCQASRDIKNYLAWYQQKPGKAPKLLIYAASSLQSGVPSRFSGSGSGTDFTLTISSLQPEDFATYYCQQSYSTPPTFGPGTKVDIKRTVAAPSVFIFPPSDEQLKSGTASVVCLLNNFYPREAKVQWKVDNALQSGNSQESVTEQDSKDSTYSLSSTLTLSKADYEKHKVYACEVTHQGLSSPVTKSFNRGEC

- Kd: 76.2 nM
B2: PMAB112 (bispecific antibody, human IgG1, kappa)
heavy: B1 heavy
light: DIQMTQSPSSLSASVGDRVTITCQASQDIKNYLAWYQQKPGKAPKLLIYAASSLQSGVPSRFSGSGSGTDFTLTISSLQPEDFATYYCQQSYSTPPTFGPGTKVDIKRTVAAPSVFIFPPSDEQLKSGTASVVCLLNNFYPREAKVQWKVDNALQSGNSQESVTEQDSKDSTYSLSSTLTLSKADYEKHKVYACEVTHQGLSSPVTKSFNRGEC

- Kd: 91.7 nM
B3: PMAB113 (bispecific antibody, human IgG1, kappa)
heavy: B1 heavy
light: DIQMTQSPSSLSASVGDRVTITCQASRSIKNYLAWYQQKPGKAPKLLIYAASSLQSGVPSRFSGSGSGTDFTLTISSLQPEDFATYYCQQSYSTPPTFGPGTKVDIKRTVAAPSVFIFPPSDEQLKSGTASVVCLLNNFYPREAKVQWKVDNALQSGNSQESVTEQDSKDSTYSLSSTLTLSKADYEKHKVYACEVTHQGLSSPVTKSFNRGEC

- Kd: 113 nM
B4: PMAB114 (bispecific antibody, human IgG1, kappa)
heavy: B1 heavy
light: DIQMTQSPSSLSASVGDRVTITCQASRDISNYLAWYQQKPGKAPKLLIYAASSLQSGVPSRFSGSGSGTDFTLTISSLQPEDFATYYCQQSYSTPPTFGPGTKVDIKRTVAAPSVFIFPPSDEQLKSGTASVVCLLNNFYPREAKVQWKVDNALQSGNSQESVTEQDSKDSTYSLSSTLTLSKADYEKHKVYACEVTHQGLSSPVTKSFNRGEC

- Kd: 67.6 nM
B5: PMAB111 (bispecific antibody, human IgG1, kappa)
heavy: B1 heavy
light: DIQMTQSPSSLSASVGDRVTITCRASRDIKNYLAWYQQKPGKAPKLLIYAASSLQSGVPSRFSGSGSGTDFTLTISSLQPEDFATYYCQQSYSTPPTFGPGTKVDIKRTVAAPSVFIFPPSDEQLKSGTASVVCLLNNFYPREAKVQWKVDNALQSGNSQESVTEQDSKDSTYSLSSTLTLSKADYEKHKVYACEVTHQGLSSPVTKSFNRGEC

- Kd: 85.9 nM
B6: PMAB109 (bispecific antibody, human IgG1, kappa)
heavy: B1 heavy with T31S
light: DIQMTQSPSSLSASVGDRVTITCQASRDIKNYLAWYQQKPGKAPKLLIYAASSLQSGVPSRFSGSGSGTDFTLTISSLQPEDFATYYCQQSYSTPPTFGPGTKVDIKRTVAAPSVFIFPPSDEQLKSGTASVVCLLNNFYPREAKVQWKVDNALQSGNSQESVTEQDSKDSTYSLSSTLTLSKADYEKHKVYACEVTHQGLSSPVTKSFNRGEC

- Kd: 229 nM
B7: PMAB115 (bispecific antibody, human IgG1, kappa)
heavy: B1 heavy
light: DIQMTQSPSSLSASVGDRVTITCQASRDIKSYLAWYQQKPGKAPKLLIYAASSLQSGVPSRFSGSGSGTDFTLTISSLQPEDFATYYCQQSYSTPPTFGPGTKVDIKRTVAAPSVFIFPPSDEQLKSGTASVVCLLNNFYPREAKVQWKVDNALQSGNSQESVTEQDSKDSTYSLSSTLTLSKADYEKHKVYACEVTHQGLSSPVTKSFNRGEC

- Kd: 55.3 nM
B8: PMAB108 (bispecific antibody, human IgG1, kappa)
heavy: B1 heavy with S28T
light: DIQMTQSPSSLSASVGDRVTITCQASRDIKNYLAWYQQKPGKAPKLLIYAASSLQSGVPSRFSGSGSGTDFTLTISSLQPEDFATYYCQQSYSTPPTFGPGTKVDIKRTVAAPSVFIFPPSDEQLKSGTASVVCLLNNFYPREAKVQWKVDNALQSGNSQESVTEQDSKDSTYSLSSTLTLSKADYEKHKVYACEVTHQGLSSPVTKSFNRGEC

- Kd: 577 nM
B9: PMAB194 (bispecific antibody, human IgG1, kappa)
heavy: EVQLLESGGGLVQPGGSLRLSCAASGFTFSSYDMSWVRQAPGKGLEWVSGITISGGSTYYADSVKGRFTISRDNSKNTLYLQMNSLRAEDTAVYYCARGRGGSGWLDYWGQGTLVTVSSASTKGPSVFPLAPSSKSTSGGTAALGCLVKDYFPEPVTVSWNSGALTSGVHTFPAVLQSSGLYSLSSVVTVPSSSLGTQTYICNVNHKPSNTKVDKKVEPKSCDKTHTCPPCPAPEAAGAPSVFLFPPKPKDTLMISRTPEVTCVVVDVSHEDPEVKFNWYVDGVEVHNAKTKPREEQYNSTYRVVSVLTVLHQDWLNGKEYKCKVSNKALPAPIEKTISKAKGQPREPQVYTLPPSREEMTKNQVSLTCLVKGFYPSDIAVEWESNGQPENNYKTTPPVLDSDGSFFLYSKLTVDKSRWQQGNVFSCSVMHEALHNHYTQKSLSLSPGGGGGSGGGGSGGGGSEVQLLESGGGLVQPGGSLRLSCAASGFTFSSYWMHWVRQAPGKGLEWVSYISGSGGYTNYADSVKGRFTISRDNSKNTLYLQMNSLRAEDTAVYYCARDRPYGYYMDVWGKGTTVTVSSGGGGSGGGGSGGGGSGGGGSDIQMTQSPSSLSASVGDRVTITCRASQSISSSLAWYQQKPGKAPKLLIYAASSLQSGVPSRFSGSGSGTDFTLTISSLQPEDFATYYCQQYKSYPVTFGQGTKVEIK
light: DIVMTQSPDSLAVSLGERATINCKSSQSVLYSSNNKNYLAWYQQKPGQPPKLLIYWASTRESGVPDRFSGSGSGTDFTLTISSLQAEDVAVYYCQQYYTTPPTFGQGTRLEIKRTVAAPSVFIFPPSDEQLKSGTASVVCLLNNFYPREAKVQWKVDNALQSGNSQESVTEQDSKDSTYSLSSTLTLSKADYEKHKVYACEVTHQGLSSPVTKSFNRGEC

- Kd: 104 nM
B10: PMAB198 (bispecific antibody, human IgG1, kappa)
heavy: B9 heavy with L114D
light: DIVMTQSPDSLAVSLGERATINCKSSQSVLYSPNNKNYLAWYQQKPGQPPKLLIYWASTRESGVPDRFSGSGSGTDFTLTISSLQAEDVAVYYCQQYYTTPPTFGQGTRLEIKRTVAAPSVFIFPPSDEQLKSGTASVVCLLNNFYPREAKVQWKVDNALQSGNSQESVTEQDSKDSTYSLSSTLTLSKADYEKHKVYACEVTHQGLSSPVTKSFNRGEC

- Kd: 651 nM
B11: PMAB195 (bispecific antibody, human IgG1, kappa)
heavy: B9 heavy
light: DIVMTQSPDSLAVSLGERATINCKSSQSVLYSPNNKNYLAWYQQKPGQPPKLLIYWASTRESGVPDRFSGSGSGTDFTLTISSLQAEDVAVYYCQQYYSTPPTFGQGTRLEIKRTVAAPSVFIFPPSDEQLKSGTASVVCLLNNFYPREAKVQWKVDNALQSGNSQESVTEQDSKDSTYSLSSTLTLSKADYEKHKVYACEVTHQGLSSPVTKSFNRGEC

- Kd: 98.6 nM
B12: PMAB199 (bispecific antibody, human IgG1, kappa)
heavy: B9 heavy with L114T
light: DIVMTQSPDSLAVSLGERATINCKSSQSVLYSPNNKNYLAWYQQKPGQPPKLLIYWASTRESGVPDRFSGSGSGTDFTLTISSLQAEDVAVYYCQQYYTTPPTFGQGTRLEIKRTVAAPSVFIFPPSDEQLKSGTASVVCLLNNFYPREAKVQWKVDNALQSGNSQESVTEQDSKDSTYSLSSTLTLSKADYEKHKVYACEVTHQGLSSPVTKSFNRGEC
